“Also recorded” adds a separate entry of the source. Where two headings read alike, the source gives them in different places.
What was measured:
[1] = Direct ELISA, chimeric antibody and mutants binding to S1P; conditions: for Binding: antibody concentration 0.1 ug/ml, S1P-coated plate
Method: Microtiter ELISA plates (Costar) were coated overnight with S1P diluted in 1 M Carbonate Buffer (pH 9.5) at 37° C. for 1 hr. Plates were washed with PBS (137 mM NaCl, 2.68 mM KCl, 10.1 mM Na2HPO4, 1.76 mM KH2PO4; pH 7.4) and blocked with PBS/BSA/Tween-20 for 1 hr at room temp or overnight at 4° C. For the primary incubation (1 hr at room temp.), a standard curve using the anti-S1P mAb and the samples to be tested for binding was built using the following set of dilutions: 0.4 μg/mL, 0.2 μg/mL, 0.1 μg/mL, 0.05 μg/mL, 0.0125 μg/mL, and 0 μg/mL, and 100 μl added to each well. Plates were washed and incubated with 100 μl per well of HRP conjugated goat anti-mouse (1:20,000 dilution) (Jackson Immuno Research) or HRP conjugated goat anti-human (H+L) diluted 1:50,000 (Jackson Immuno Research) for 1 hr at room temperature. After washing, the enzymatic reaction was detected with tetramethylbenzidine (Sigma) and stopped by adding 1 M H2SO4. The optical density (OD) was measured at 450 nm using a Thermo Multiskan EX. Raw data were transferred to GraphPad software for analysis.
The chromogenic reaction was measured and reported as Optical density (OD). The concentration of the panel of antibodies was 0.1 ug/ml. No interaction of the second antibody with S1P-coated matrix alone was detected.

[2] = tested on: Caki-1 cells; experiment: In vitro IL-8 production, ELISA of culture supernatants; type: cell-based, human; conditions: 18:1 LPA (0.2 mM), 24h, non-treated cells
Method: Three anti-LPA mAbs (B3, B7 and B58) were tested for their abilities to reduce in vitro IL-8 production compared to a non-specific antibody (NS). Caki-1 cells were seeded in 96 well plates and grown to confluency. After overnight serum starvation, cells were treated with 18:1 LPA (0.2 mM) with or without anti-LPA mAb B3, B7, B58 or NS (Non-Specific). After 24h, cultured supernatants of renal cancer cells (Caki-1), treated with or without LPA and in presence of increasing concentrations of the anti-LPA mAbs B3, B7 and B58, were collected and analyzed for IL-8 levels using a commercially available ELISA kit (Human Quantikine Kit, R&D Systems, Minneapolis, Minn.). […] Similar results were obtained with the other well-known pro-angiogenic factor, VEGF. The inhibition of IL-8 release by the anti-LPA mAbs was also observed in other cancerous cell lines such as the pancreatic cell line Panc-1.

[3] = Competitive ELISA for cross reactivity of anti-S1P mAb, competitor S1P; type: binding
Method: (§1) Screening of serum and cell supernatant for S1P-specific antibodies was by direct ELISA using the thiolated S1P analog described in Example 1 (i.e., compound 10) as the antigen. A standard ELISA was performed, as described below, except that 50 ul of sample (serum or cell supernatant) was diluted with an equal volume of PBS/0.1% Tween-20 (PBST) during the primary incubation. ELISAs were performed in 96-well high binding ELISA plates (Costar) coated with 0.1 μg of chemically-synthesized compound 10 conjugated to BSA in binding buffer (33.6 mM Na2CO3, 100 mM NaHCO3; pH 9.5). The thiolated-S1P-BSA was incubated at 37° C. for 1 hr. at 4° C. overnight in the ELISA plate wells. The plates were then washed four times with PBS (137 mM NaCl, 2.68 mM KCl, 10.14 mM Na2HPO4, 1.76 mM KH2PO4; pH 7.4) and blocked with PBST for 1 hr. at room temperature. For the primary incubation step, 75 uL of the sample (containing the S1P to be measured), was incubated with 25 uL of 0.1 ug/mL anti-S1P mAb diluted in PBST and added to a well of the ELISA plate. […] Optical density of the samples was determined by measurement at 450 nm using an EL- X-800 ELISA plate reader (Bio-Tech).
(§2) For cross reactivity, a competitive ELISA was performed as described above, except for the following alterations (FIG. 4). […] Biotin incorporation was determined as per kit protocol and ranged from 7 to II biotin molecules per antibody. […]

[4] = Competitive ELISA for cross reactivity of anti-S1P mAb, competitor DH-S1P; type: binding
Method: as §1, §2

[5] = Competitive ELISA for cross reactivity of anti-S1P mAb, competitor LPA; type: binding; conditions: LPA (glycerol backbone)
Method: as §1, §2

[6] = Competitive ELISA for cross reactivity of anti-S1P mAb, competitor SPC; type: binding; conditions: competitor SPC (free phosphate linked with a choline)
Method: as §1, §2

[7] = BIAcore binding kinetics of anti-S1P mAb to immobilized S1P; conditions: depending on monovalent or bivalent binding model, read-out: affinity of the monoclonal antibody to S1P
Method: Binding kinetics: The binding kinetics of S1P to its receptor or other moieties has, traditionally, been problematic because of the nature of lipids. Many problems have been associated with the insolubility of lipids. For BIAcore measurements, these problems were overcome by directly immobilizing S1P to a BIAcore chip. Antibody was then flowed over the surface of the chip and alterations in […] were measured to determine the binding characteristics of the antibody to S1P. To circumvent the bivalent binding nature of antibodies, S1P was coated on the chip at low densities. Additionally, the chip was coated with various densities of S1P (7, 20, and 1000 RU) and antibody binding data was globally fit to a 1:1 interaction model.

[8] = ELISA with exchanged crosslinker or protein carrier in the laydown material; type: binding
Excerpt: For example, the normal crosslinker SMCC was exchanged for IOA in conjugating the thiolated-S1P to BSA as the laydown material in the ELISA. […] Similarly, KLH was exchanged for BSA as the protein that was complexed with thiolated-S1P as the laydown material.

[9] = Competitive ELISA for cross reactivity of anti-S1P mAb, competitor C1P; type: binding; conditions: C1P (amino group esterified to a fatty acid)
Method: as §1, §2

MetLeu
Binding [1]: 1.6 OD

lysophosphatidic acid [LPA]
increase of the expression of IL-8 [2]: 100%

CysPhe
binding to S1P compared with the chimeric antibody ([1]; ELISA, substitution of Cys at position 50 of heavy chain): did not alter the binding | Binding [1]: 2 OD

B1: anti-S1P mAb: murine IgG1 kappa monoclonal antibody against S1P from hybridoma clone 306D326.26 (ATCC SD-5362) (antibody, V domains shown)
VH: QAHLQQSDAELVKPGASVKISCKVSGFIFIDHTIHWMKQRPEQGLEWIGCISPRHDITKYNEMFRGKATLTADKSSTTAYIQVNSLTFEDSAVYFCARGGFYGSTIWFDFWGQGTTLTVS
VL: ETTVTQSPASLSMAIGEKVTIRCITTTDIDDDMNWFQQKPGEPPNLLISEGNILRPGVPSRFSSSGYGTDFLFTIENMLSEDVADYYCLQSDNLPFTFGSGTKLEIK
distinction of thiolated-S1P analog (compound 10) from natural S1P ([3]; competition experiment): unable to distinguish | competition for the mAb binding to S1P on the plate ([3]; competitor free S1P): can compete for binding | competition for the mAb binding to S1P on the plate [4]: can compete for binding | antibody binding [5]: no binding | competition for the mAb binding to S1P on the plate [6]: somewhat reduced; also recorded: only slightly competes for binding | Kd ([7]; lower end): ~0.088 nM | Kd ([7]; upper end): ~99 nM | binding characteristics versus BSA laydown ([8]; KLH exchanged for BSA as protein): no significant difference | binding characteristics versus BSA-SMCC-thiolated-S1P laydown ([8]; SMCC exchanged for IOA): nearly identical | antibody binding [9]: no antibody binding was observed

— patent US20080138334A1, “Immune-Derived Moieties Reactive Against Bioactive Lipids, and Methods of Making and Using Same” (priority 2006, published 2008)
